Measured values taken from patent publication US20230235040A1 (ALMIRALL S A, published 2023).
Numbering of substitutions follows the chain as printed.

Tests used:
[1] = target: T1, hu-IL-36β (human IL-36β, N-terminally truncated active form R5-E157) (human); assay: cell-based or functional assay
T1 chain: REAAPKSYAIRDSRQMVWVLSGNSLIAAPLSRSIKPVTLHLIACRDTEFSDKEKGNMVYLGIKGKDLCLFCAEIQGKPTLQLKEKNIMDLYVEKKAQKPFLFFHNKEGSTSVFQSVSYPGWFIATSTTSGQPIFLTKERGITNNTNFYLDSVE

[2] = target: T1, hu-IL-36β (human IL-36β, N-terminally …); assay: ELISA, yeast Fab supernatant, anti-Fab-HRP
[3] = target: T2, cy-IL-36β (cynomolgus monkey IL-36β, W5-E157) (cynomolgus monkey); assay: ELISA on coated cy- and hu-IL-36β, yeast Fab supernatant; ratio of OD450
T2 construct: Purification tag cleaved off
T2 chain: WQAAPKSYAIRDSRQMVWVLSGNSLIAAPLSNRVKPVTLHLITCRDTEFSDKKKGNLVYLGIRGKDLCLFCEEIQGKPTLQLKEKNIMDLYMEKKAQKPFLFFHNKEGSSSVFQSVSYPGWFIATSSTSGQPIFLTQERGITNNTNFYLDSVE
Method: Cell supernatants from yeast clones of interest were tested for binding to human IL-36 by ELISA as described above. To compare the binding of these supernatants to human and cynomolgus monkey IL-36, IL-36 proteins were coated at 2.5 μg/mL on 96-well Nunc MaxiSorp plates (Thermo Fisher) and the plates blocked with 5% goat serum in PBS. Yeast supernatants were diluted 1:1 with PBST containing 1% w/v BSA and added to the ELISA plates for 1-1.5 hours with agitation. Bound Fab was detected by incubating the plates with F(ab′)2-HRP (Jackson ImmunoResearch). The ELISAs were developed for 3-10 minutes by addition of 50 μL/well of tetramethylbenzidine (TMB) microwell peroxidase substrate (Scytek Laboratories, Inc., Logan, Utah, USA) and enzymatic color development was stopped by acidification with 50 µL/well of 2 N H₂SO₄ (Sigma-Aldrich Corporation, St. Louis, Mo., USA). The optical density of the samples at a wavelength of 450 nm (OD450) was analyzed with a SpectraMax i3X plate reader (Molecular Devices LLC, San Jose, Calif., USA). To estimate the relative affinity of each clone for cynomolgus monkey IL-36 and human IL-36 in this assay, a ratio of OD450 (OD450_cyIL-36/OD450_huIL-36) was calculated for each clone and IL-36 cytokine.

[4] = target: T3, hu-IL-36α (human IL-36α, N-terminally truncated active form K6-F158) (human, UniProt Q9UHA7 6-158); assay: cell-based or functional assay
T3 sequence: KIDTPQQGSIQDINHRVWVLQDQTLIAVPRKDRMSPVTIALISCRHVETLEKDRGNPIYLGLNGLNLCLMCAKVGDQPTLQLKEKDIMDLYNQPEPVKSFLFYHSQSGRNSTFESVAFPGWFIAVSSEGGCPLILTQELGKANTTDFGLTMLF

[5] = target: T4, hu-IL-36γ (human IL-36γ, N-terminally truncated active form S18-D169) (human, UniProt Q9NZH8 18-169); assay: cell-based or functional assay
T4 sequence: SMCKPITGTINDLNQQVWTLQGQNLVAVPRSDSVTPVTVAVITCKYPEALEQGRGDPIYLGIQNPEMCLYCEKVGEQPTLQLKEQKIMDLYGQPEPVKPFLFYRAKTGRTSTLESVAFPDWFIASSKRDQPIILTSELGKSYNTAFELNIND

[6] = target: T5, cy-IL-36α (cynomolgus monkey IL-36α, K6-F158) (cynomolgus monkey, UniProt Q9UHA7 14-158 (human entry)); assay: cell-based or functional assay
T5 chain: T3 sequence with I2S, D3E, T4M, Q7P, G8V, T24I, M34V, A40S, V74A

[7] = target: T6, cy-IL-36γ (cynomolgus monkey IL-36γ, S18-K168) (cynomolgus monkey, UniProt Q9NZH8 18-167 (human entry)); assay: cell-based or functional assay
T6 chain: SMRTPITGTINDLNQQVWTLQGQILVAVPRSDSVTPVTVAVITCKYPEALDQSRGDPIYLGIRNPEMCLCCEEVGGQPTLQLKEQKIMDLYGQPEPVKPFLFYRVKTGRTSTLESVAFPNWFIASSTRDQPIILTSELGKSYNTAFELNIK

[8] = target: T3, hu-IL-36α (human IL-36α, N-terminally …); assay: cell-based or functional assay; remark: listed apart in the source
[9] = target: T4, hu-IL-36γ (human IL-36γ, N-terminally …); assay: cell-based or functional assay; remark: listed apart in the source
[10] = target: T1, hu-IL-36β (human IL-36β, N-terminally …); assay: cell-based or functional assay
[11] = target: T2, cy-IL-36β (cynomolgus monkey IL-36β, …); assay: cell-based or functional assay
[12] = target: T1, hu-IL-36β (human IL-36β, N-terminally …); assay: cell-based or functional assay
[13] = target: T1, hu-IL-36β (human IL-36β, N-terminally …); assay: SPR (Biacore 8K), IgG captured on protein A chip, hu-IL-36β injected, 37°C
Method: (§1) FC1 was kept as a reference. Next, 3-fold serial dilutions of hu-IL-36β in HBS-P buffer from low (0.046 nM of hu-IL-36β) to high (100 nM of hu-IL-36β) were injected (flow rate: 30 μL/min) at either 37° C. The sensorgram was recorded and subject to reference and buffer subtraction before data analysis with the BIACORE® 8K Evaluation Software (GE Healthcare, Chicago, Ill., USA; version 1.1.1.7442). Association rates (kₒₙ) and dissociation rates (koff) were calculated using a simple one-to-one Langmuir binding model. The equilibrium dissociation constant (KD) was calculated as the ratio of koff/kₒₙ.

[14] = target: T1, hu-IL-36β (human IL-36β, N-terminally …); assay: SPR (Biacore 8K), IgG captured on protein A chip, 37°C
Method: as §1

B1: mAb6.0 Fab (yeast clone culture supernatant) (Fab, V domains shown)
VH: QLQLQESGPGLVKPSETLSLTCTVSGGSITSSNYYWGWIRQPPGKGLEWIGSIDYTGSTYYNPSLKSRVTISVDTSKNQFSLKLSSVTAADTAVYYCARGKYYETYLGFDVWGQGTLVTVSS
VL: QSVLTQPPSVSGAPGQRVTISCTGSSSNIGAGYDVHWYQQLPGTAPKLLIYGNTNRPSGVPDRFSGSKSGTSASLAITGLQAEDEADYYCQSYDISLSGWVFGGGTKLTVL
notes: Human Fab secreted by the yeast clone, not purified
% Inhibition, HEK-Blue IL-36R SEAP reporter assay [1]: 86% | ELISA OD450 [2]: 2.34 OD450 | ELISA OD450cyIL-36/OD450hu-IL-36 [3]: 4 ratio

B2: mAb7.0 Fab (yeast clone culture supernatant) (Fab, V domains shown)
VH: QVQLVESGGGVVQPGRSLRLSCAASGFTFSSYGMHWVRQAPGKGLEWVAVISYGGSERYYADSVKGRFTISRDNSKNTLYLQMNSLRAEDTAVYYCAREPWYSSRGWTGYGFDVWGQGTLVTVSS
VL: EIVLTQSPGTLSLSPGERATLSCRASQSVSSNYLAWYQQKPGQAPKLLIYSASSLQSGVPSRFSGSGSGTDFTLTISSLQPEDFATYYCQQTYSYPPTFGQGTKVEIK
notes: as for B1
% Inhibition, HEK-Blue IL-36R SEAP reporter assay [1]: 84% | ELISA OD450 [2]: 2.58 OD450 | ELISA OD450cyIL-36/OD450hu-IL-36 [3]: 3.9 ratio

B3: mAb2.0 recombinant human IgG1 (antibody, V domains shown)
VH: QLQLQESGPGLVKPSETLSLTCTVSGGSISTSSYYWGWIRQPPGKGLEWIGSIYYTGNTYYNPSLKSRVTISVDTSKNQFSLKLSSVTAADTAVYYCARVRYGVGVPRYFDPWGQGTLVTVSS
VL: QSVLTQPPSVSGAPGQRVTISCTGSSSNIGAHYDVHWYQQLPGTAPKLLIYGNDNRPSGVPDRFSGSKSGTSASLAITGLQAEDEADYYCQSYDYSLSGYVFGGGTKLTVLG
IC50, IL-36-stimulated IL-8 secretion by HaCat cells [4]: 0.28 nM | IC50, IL-36-stimulated IL-8 secretion by primary human keratinocytes (HEKn) [4]: 0.33 nM | blocking potency relative to the natural antagonist IL-36Ra, HaCat IL-8 assay [4]: 100 fold | IC50, IL-36-stimulated IL-8 secretion by HaCat cells [5]: 1.23 nM | IC50, IL-36-stimulated IL-8 secretion by primary human keratinocytes (HEKn) [5]: 2.27 nM | blocking potency relative to the natural antagonist IL-36Ra, HaCat IL-8 assay [5]: 12 fold | IC50, HEK-Blue assay with human IL1RL2 [6]: 0.56 nM | IC50, HEK-Blue assay with human IL1RL2 [7]: 1.71 nM | IC50, HEK-Blue IL-36R SEAP reporter assay [8]: 5.7 nM | IC50, HEK-Blue IL-36R SEAP reporter assay [9]: 7.5 nM

B4: mAb6.0 recombinant human IgG1 (antibody, V domains shown)
VH: B1 VH
VL: QESVLTQPPSVSGAPGQRVTISCTGSSSNIGAGYDVHWYQQLPGTAPKLLIYGNTNRPSGVPDRFSGSKSGTSASLAITGLQAEDEADYYCQSYDISLSGWVFGGGTKLTVLG
notes: Human IgG1; also called mAb6.0 IgG
IC50, IL-36-stimulated IL-8 secretion by HaCat cells [10]: 0.082 nM | IC50, IL-36-stimulated IL-8 secretion by primary human keratinocytes (HEKn) [10]: 1.75 nM | IC50, hu-IL-36β-stimulated IL-8 secretion by HaCat cells [10]: 0.8 nM | blocking potency relative to IL-36Ra, HaCat IL-8 assay [10]: 1000 fold | IC50, HEK-Blue assay with human IL1RL2 [11]: 1.96 nM | IC50, HEK-Blue IL-36R SEAP reporter assay [12]: 0.64 nM | Kd [13]: 0.42 nM | koff [13]: 0.000115 s⁻¹ | kon [13]: 362000 M⁻¹ s⁻¹

B5: mAb6.0_2.0 IgG (mAb6.0 HC/mAb2.0 LC chimera) (antibody, V domains shown)
VH: B1 VH
VL: B3 VL
IC50, hu-IL-36β-stimulated IL-8 secretion by HaCat cells [10]: 12.7 nM | fold decrease in potency relative to mAb6.0 IgG, HaCat IL-8 assay [10]: 16 fold | fold lower affinity than mAb6.0 [14]: 16 fold | Kd [13]: 6.7 nM | koff [13]: 0.00214 s⁻¹ | kon [13]: 320000 M⁻¹ s⁻¹
